{
  "source": "patent US5847088A",
  "about": "“Antibodies specific for platelet-activating factor acetylhydrolase” (ICOS Corporation, priority 1995, dated 1998)",
  "molecules": {"B1": {"name": "PAF-AH: Recombinant human plasma platelet-activating factor acetylhydrolase (beginning at Ile42 of SEQ ID NO:8) expressed in E. coli (protein, UniProt Q13093 22-441, looked up)", "Platelet-activating factor …": "FDWQYINPVAHMKSSAWVNKIQVLMAAASFGQTKIPRGNGPYSVGCTDLMFDHTNKGTFLRLYYPSQDNDRLDTLWIPNKEYFWGLSKFLGTHWLMGNILRLLFGSMTTPANWNSPLRPGEKYPLVVFSHGLGAFRTLYSAIGIDLASHGFIVAAVEHRDRSASATYYFKDQSAAEIGDKSWLYLRTLKQEEETHIRNEQVRQRAKECSQALSLILDIDHGKPVKNALDLKFDMEQLKDSIDREKIAVIGHSFGGATVIQTLSEDQRFRCGIALDAWMFPLGDEVYSRIPQPLFFINSEYFQYPANIIKMKKCYSPDKERKMITIRGSVHQNFADFTFATGKIIGHMLKLKGDIDSNVAIDLSNKASLAFLQKHLGLHKDFDQWDCLIEGDDENLIPGTNINTTNQHIMLQNSSGIEKYN"}},
  "key": {"[1]": {"assay": "Plasma PAF-AH activity in rats of the NEC experiments", "format": "in vivo, rat", "description": "The plasma PAF-AH activities were also determined in the rats utilized in the experiment described above. PAF-AH activity was determined as follows. Prior to the tail vein injection, blood samples were obtained. Subsequently blood samples were obtained from the vena cava just prior to the injection of PAF and at the time of sacrifice. Approximately 50 μl of blood was collected in heparinized capillaries. The plasma was obtained following centrifugation (980×g for 5 minutes). The enzyme was assayed as previously described by Yasuda and Johnston, Endocrinology, 130:708-716 (1992).\nIn order to determine if the protection against NEC in rats was dose dependent, animals were treated with increasing doses of PAF-AH 15 minutes prior to PAF administration. Initially, PAF-AH, ranging from 25.5 to 25,500 units were administered into the tail vein of rats. PAF (0.4 μg in 0.2 ml of BSA-saline) was subsequently injected into the abdominal aorta 15 minutes after the administration of PAF-AH. The small intestine was removed and examined for NEC development 2 hours after PAF administration. Plasma PAF-AH activity was determined prior to the exogenous administration of the enzyme, and 15 minutes and 21/4 hours after PAF-AH administration. The results are the mean of 2-5 animals in each group."}, "PAF-induced foot edema": {"test_system": "PAF-induced foot edema", "assay": "Rat foot edema model, PAF-induced", "format": "in vivo", "description": "Six to eight-week-old female Long Evans rats (Charles River, Wilmington, Mass.), weighing 180-200 grams, were used for all experiments. Prior to experimental manipulations, animals were anesthetized with a mixture of the anesthetics Ketaset (Fort Dodge Laboratories, Fort Dodge, Iowa), Rompun (Miles, Shawnee Mission, Kans.), and Ace Promazine (Aveco, Fort Dodge, Iowa) administered subcutaneously at approximately 2.5 mg Ketaset, 1.6 mg Rompun, 0.2 mg Ace Promazine per animal per dose. Edema was induced in the foot by administration of either PAF or zymosan as follows. PAF (Sigma #P-1402) was freshly prepared for each experiment from a 19.1 mM stock solution stored in chloroform/methanol (9:1) at -20° C. Required volumes were dried down under N2, diluted 1:1000 in a buffer containing 150 mM NaCl, 10 mM Tris pH 7.5, and 0.25% BSA, and sonicated for five minutes. Animals received 50 μl PAF (final dose of 0.96 nmoles) subcutaneously between the hind foot pads, and edema was assessed after 1 hour and again after 2 hours in some experiments. Zymosan A (Sigma #A-8800) was freshly prepared for each experiment as a suspension of 10 mg/ml in PBS. Animals received 50 μl of zymosan (final dose of 500 μg) subcutaneously between the hind foot pads and edema was assessed after 2 hours.\nEdema was quantitated by measuring the foot volume immediately prior to administration of PAF or zymosan and at indicated time point post-challenge with PAF or zymosan. Edema is expressed as the increase in foot volume in milliliters. Volume displacement measurements were made on anesthetized animals using a plethysmometer (UGO Basile, model #7150) which measures the displaced water volume of the immersed foot. […] Repeated measurements of the same foot using this technique indicate the precision to be within 5%.\nPAF-AH was injected locally between the foot pads, or systematically by IV injection in the tail vein. For local administration rats received 100 μl PAF-AH (4000-6000 U/ml) delivered subcutaneously between the right hind foot pads. Left feet served as controls by administration of 100 μl carrier (buffered salt solution). For systemic administration of PAF-AH, rats received the indicated units of PAF-AH in 300 μl of carrier administered IV in the tail vein. Controls received the appropriate volume of carrier IV in the tail vein."}, "[2]": {"format": "biochemical", "text": "The most remarkable property of the PAF acetylhydrolase is its marked specificity for substrates with a short residue at the sn-2 position of the substrate. This strict specificity distinguishes PAF acetylhydrolase from other forms of PLA2. […] Native plasma PAF-AH has several other properties that distinguish it from other phospholipases including calcium-independence and resistance to compounds that modify sulfhydryl groups or disrupt disulfides."}, "[3]": {"details": "25,500 units IV, 21/4 hours after injection"}},
  "data": [
    {"molecule": "B1", "values": [
      {"measurement": "plasma PAF-AH activity after 15 minutes", "setting": "[1]; 2040 units IV", "result": "363 units per ml of plasma"},
      {"measurement": "increase of plasma PAF-AH activity over basal levels", "setting": "[1]; 2040 units IV, 15 minutes", "result": "five-fold increase over basal levels"},
      {"measurement": "plasma PAF-AH activity at time of sacrifice, groups 2 and 4", "setting": "[1]; 25,500 units IV, 21/4 hours after PAF-AH injection", "result": "1855±257", "unit": "units"},
      {"measurement": "plasma PAF-AH activity at time of sacrifice, Group 2", "setting": "[1]; [3]", "result": "1771±308"},
      {"measurement": "plasma PAF-AH activity at time of sacrifice, Group 4", "setting": "[1]; [3]", "result": "1939±478"},
      {"measurement": "plasma PAF-AH activity after 15 minutes, group 2", "setting": "[1]; 25,500 units IV, BSA-saline group", "result": "2249±341 units (1 unit equals 1 nmoles×min^-1 ×ml^-1 plasma)"},
      {"measurement": "plasma PAF-AH activity after 15 minutes, group 4", "setting": "[1]; 25,500 units IV, PAF group", "result": "2494±623 units (1 unit equals 1 nmoles×min^-1 ×ml^-1 plasma)"},
      {"measurement": "resultant plasma enzyme activity", "setting": "[1]; less than 1,020 total units administered", "result": "≤ 160"},
      {"measurement": "mean increase in volume (foot edema)", "setting": "PAF-induced foot edema; 2000 U IV 15 minutes before PAF, 1 hour, ± SEM (FIG. 6)", "result": "0.08 ± 0.02", "unit": "mL"},
      {"measurement": "mean volume increase (foot edema)", "setting": "PAF-induced foot edema; 2000 U IV 15 minutes prior to PAF, two hours after challenge, ± SEM", "result": 0.10, "unit": "mL"},
      {"measurement": "ID50", "setting": "PAF-induced foot edema; IV 15 minutes prior to PAF, edema after 1 hour", "result": "40-80 U per rat"},
      {"measurement": "IV doses found to dramatically reduce PAF mediated inflammation", "setting": "PAF-induced foot edema; IV dosing studies", "result": "160-2000 U/rat"},
      {"measurement": "PAF-induced edema, PAF-AH versus PAF antagonists", "setting": "PAF-induced foot edema; PAF-AH 2000 U IV, CV3988 or Alprazolam 2 mg IP (FIG. 10)", "result": "reduction in PAF-induced edema beyond that afforded by the established PAF antagonists"},
      {"measurement": "plasma concentration predicted to block PAF-elicited edema", "setting": "PAF-induced foot edema; calculated from plasma volume of 180-200 gram rats", "result": "25-40 U/ml"},
      {"measurement": "increase in foot volume", "setting": "PAF-induced foot edema; local subcutaneous 100 μl PAF-AH (4000-6000 U/ml), immediate PAF challenge, 1 hour post-challenge, mean ± SEM", "result": 0.08, "unit": "mL"},
      {"measurement": "duration of protection from PAF induced edema", "setting": "PAF-induced foot edema; single 2000 U IV dose", "result": "at least 24 hours"},
      {"measurement": "degradation of glutaroylPC (oxidized phospholipid)", "setting": "[2]", "result": "rapidly degraded"}
    ]}
  ]
}
